Reference: PMC7603442, “Tracking a TGF-β activator in vivo: sensitive PET imaging of αvβ8-integrin with the Ga-68-labeled cyclic RGD octapeptide trimer Ga-68-Triveoctin” (EJNMMI Research, 2020)
Like-named read-outs stand apart in the source and are kept apart here. Starred links: 1 amine or outer side, 2 acyl side, 3 side chain; linkers in the order of their positions; H or OH if unused. Positions of bridges follow the written chain, without caps; N, C: chain ends. Non-standard residues stand in square brackets, D forms with d. Residues, ends and D or L forms follow the SMILES beside them. Chains are numbered I, II in the order given. *: point of attachment. X1 = O=C(CCP(=O)(O)CN1CCN(CP(=O)(O)CCC(=O)NCCCn2cc(CCC(=O)[*:2])nn2)CCN(CP(=O)(O)CCC(=O)NCCCn2cc(CCC(=O)[*:3])nn2)CC1)NCCCn1cc(CCC(=O)[*:1])nn1; X2 = O=C(O)CCP(=O)(O)CN1CCN(CP(=O)(O)CCC(=O)O)CCN(CP(=O)(O)CCC(=O)NCCCn2cc(CCC(=O)*)nn2)CC1; NMeK = CN[C@@H](CCCCN)C(=O)O; Pent4ynoyl = C#CCCC(=O)*

Tests used:
αvβ8-integrin = αvβ8-integrin (Homo sapiens, UniProt P06756+P26012); assay: solid-phase binding assay, αvβ8-integrin affinity
Description: (§1) Synthesis and characterization of Triveoctin is described in the Additional file 1. The integrin affinities were determined by a solid-phase binding assay, applying a previously described protocol. β8 immunohistochemistry stainings were done as described. All animal studies have been performed in accordance with general animal welfare regulations in Germany and the institutional guidelines for the care and use of animals. ^68Ga radiolabeling, cultivation of MeWo cells and generation of respective subcutaneous xenografts, determination of n-octanol/phosphate-buffered saline (PBS) distribution coefficients (log D) and ex-vivo biodistribution studies, and µPET imaging were done as described previously in detail (a brief summary is provided in the following).

[1] = tested on: MeWo (human melanoma) xenografted SCID mice; parameters: method as in PMID 23283986; settings: cited from earlier work
clinical = settings: human, in vivo
Description: Using a fully automated synthesis module, the eluate of a ^68Ge/^68Ga generator (by Eckert & Ziegler, Berlin, Germany; 0.1 M HCl, approx. 500 MBq ^68Ga) was directly eluted into the reaction vial containing Triveoctin (35 µg) and adjusted to pH 4.5 with sodium acetate. After heating for 4 min at 95 °C, the mixture was passed over a solid-phase extraction cartridge (Waters Sep-Pak®light tC-18), which was purged with water (10 mL). Thereafter, ^68Ga-Triveoctin was eluted with ethanol/water mixture (1:1 by volume, 1 mL), followed by isotonic saline (9 mL). The formulation containing approx. 5% ethanol was passed through a 0.22-µm filter into a sterile injection vial and dispensed for injection. Quality control was done by radio-HPLC using a Shimadzu system equipped with a column Chromolith® Performance RP18e (Phenomenex, Aschaffenburg, Germany), gradient 0–100% acetonitrile in water within 15 min, flow rate 1.4 mL/min, tR = 8.53 min, and met the in-house specifications for ^68Ga-labeled compounds (> 95%).
(§2) Application of ^68Ga-Triveoctin was done according to §13/2b of the German Drug Act (Arzneimittelgesetz). A human subject received a single intravenous injection of ^68Ga-Triveoctin (173 MBq, approx. 25 µg; for radiolabeling and QC, see Additional file 1). […] 25 min p.i., the patient underwent a list-mode PET/CT imaging protocol on a Biograph Vision 600 (Siemens Healthineers, Knoxville, USA). A standard low-dose CT was acquired from the whole body (X-ray tube current 10 mA, tube voltage 100 kV, spiral pitch factor 1.5, 3.0 mm slice thickness) and used for absolute scatter correction of the subsequent PET scan. The emission PET scan was acquired over 19 min using continuous bed motion with a speed of 2.2 mm s^–1 for the legs and 1.4 mm s^–1 for the remaining body. The PET scan was repeated 45 min p.i. without another CT scan. Another PET/CT imaging sequence was acquired 90 min p.i. as the subject had to leave the scanner for voiding. All scans were obtained during normal breathing. PET images were reconstructed using the TRueX algorithm with 4 iterations, 5 subsets, time-of-flight (TOF) application and without filtering. […] The dosimetry values were calculated using OLINDA V1.1 [24] on the basis of the human PET data.

[2] = parameters: species or system human; settings: in vivo
Description: as §2
Assuming that an activity of 100 MBq ^68Ga-Triveoctin is sufficient for a PET scan at 30–60 min p.i., up to 6 investigations could be performed without exceeding the 20 mSv limit.

in vivo = assay: in vivo; parameters: species or system mice; settings: female, CB17 SCID, mouse; for tissue uptake at 1 h: 43 pmol
Description: as §1
(§3) MeWo cells (ATCC®, HTB-65™) were grown at 37 °C under 5% CO2 atmosphere in DMEM/HAM (Biochrom, Berlin, Germany) with 10% fetal calf serum (Thermo Fisher). Approx. 10^7 cells were subcutaneously injected with Matrigel® (Corning, #354262) into the right shoulder of 6–8-week-old female CB17 severe combined immunodeficiency (SCID) mice, which were used about 2–3 weeks later for PET and biodistribution.
(§4) Fig. 3 Biodistribution of ^68Ga-Triveoctin, 60 min p.i. (43 ± 13 pmol, n = 6; blockade with 60 nmol Triveoctin injected 5 min prior to the radiopharmaceutical, n = 4) in MeWo-xenografted SCID mice, uptakes expressed as % injected dose per gram tissue; mean ± SD. Data for ^68Ga-TRAP-AvB8 (control: 77 ± 24 pmol, n = 11; blockade: n = 3) were taken from the literature and are shown for comparison. Data in numerical form are given in the Additional file 1: Table S1

[3] = tested on: MeWo (human melanoma) xenografted SCID mice; assay: in vivo; settings: mouse
Description: as §1, §3, §4

[4] = non-radioactive 69/71Ga(III) complexes where applicable, read-out: αvβ8-Integrin affinity IC50 (95% confidence interval)
[5] = female, CB17 SCID, 43 pmol, 1 h

αvβ8-integrin, sequence (P06756 31-992 limits assumed): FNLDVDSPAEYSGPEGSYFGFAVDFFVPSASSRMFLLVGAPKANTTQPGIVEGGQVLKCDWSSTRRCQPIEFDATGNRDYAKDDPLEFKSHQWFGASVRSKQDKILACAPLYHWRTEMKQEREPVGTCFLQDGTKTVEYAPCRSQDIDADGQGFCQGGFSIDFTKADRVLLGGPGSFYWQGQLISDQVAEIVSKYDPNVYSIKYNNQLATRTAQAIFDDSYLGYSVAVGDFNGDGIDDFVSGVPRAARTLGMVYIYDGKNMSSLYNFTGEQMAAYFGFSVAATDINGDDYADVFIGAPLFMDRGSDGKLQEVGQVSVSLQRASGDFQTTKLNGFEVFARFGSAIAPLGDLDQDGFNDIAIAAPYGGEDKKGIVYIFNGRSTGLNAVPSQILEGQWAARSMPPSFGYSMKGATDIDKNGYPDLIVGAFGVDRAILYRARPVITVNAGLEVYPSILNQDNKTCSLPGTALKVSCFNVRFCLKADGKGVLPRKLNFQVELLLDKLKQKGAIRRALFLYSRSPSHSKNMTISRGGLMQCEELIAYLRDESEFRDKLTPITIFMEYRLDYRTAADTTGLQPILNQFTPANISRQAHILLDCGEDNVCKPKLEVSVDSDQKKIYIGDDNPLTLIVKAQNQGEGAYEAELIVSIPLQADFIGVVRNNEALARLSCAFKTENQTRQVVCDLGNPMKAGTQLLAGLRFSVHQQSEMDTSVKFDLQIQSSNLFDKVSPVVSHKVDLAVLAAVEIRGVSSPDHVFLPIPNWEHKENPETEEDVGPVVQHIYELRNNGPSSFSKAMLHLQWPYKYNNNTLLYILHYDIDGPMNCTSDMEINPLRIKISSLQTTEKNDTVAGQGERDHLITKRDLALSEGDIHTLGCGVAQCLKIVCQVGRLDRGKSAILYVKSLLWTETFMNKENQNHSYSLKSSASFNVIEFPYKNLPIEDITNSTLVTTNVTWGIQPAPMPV
αvβ8-integrin, sequence (P26012 43-684 limits assumed): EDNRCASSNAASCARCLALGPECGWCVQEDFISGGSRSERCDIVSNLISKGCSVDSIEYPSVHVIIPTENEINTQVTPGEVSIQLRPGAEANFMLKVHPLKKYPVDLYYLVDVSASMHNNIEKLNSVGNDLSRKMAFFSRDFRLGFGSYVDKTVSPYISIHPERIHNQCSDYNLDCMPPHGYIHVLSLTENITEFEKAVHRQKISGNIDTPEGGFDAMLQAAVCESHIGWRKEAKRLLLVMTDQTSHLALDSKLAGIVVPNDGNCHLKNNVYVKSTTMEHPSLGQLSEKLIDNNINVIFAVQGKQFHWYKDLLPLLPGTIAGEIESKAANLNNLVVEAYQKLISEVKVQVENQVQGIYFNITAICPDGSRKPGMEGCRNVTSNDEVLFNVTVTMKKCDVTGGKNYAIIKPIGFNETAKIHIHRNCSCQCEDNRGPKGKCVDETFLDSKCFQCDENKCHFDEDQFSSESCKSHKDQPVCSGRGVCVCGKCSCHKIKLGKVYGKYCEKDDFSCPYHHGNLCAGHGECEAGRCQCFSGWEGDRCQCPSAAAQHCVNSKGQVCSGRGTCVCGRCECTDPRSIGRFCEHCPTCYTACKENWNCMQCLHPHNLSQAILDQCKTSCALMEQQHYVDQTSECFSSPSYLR

C#CCCC(=O)NCCCC[C@H]1C(=O)NCC(=O)N[C@@H](CC(C)C)C(=O)N[C@@H](CCCNC(=N)N)C(=O)NCC(=O)N[C@@H](CC(=O)O)C(=O)N[C@@H](CC(C)C)C(=O)N2CCC[C@@H]2C(=O)N1C [AvB8-pentynoic amide, cyclo(GLRGDLp(NMe)K(pent-4-ynoic amide))] (cyclo(GLRGDL[dP][NMeK](Pent4ynoyl))) gave an IC50 (αvβ8-integrin; [4]) of 17 nM.

For CC(C)C[C@@H]1NC(=O)CNC(=O)[C@H](CCCCNC(=O)CCc2cn(CCCNC(=O)CCP(=O)(O)CN3CCN(CP(=O)(O)CCC(=O)O)CCN(CP(=O)(O)CCC(=O)O)CC3)nn2)N(C)C(=O)[C@H]2CCCN2C(=O)[C@H](CC(C)C)NC(=O)[C@H](CC(=O)O)NC(=O)CNC(=O)[C@H](CCCNC(=N)N)NC1=O [^68Ga-TRAP-AvB8, metal not drawn] (cyclo(GLRGDL[dP][NMeK](X2))), the kidney uptake ([1]; 60 min p.i., average) is listed as 3.6 %IA/g, the “tumor uptake upon blockade” value ([1]; blockade n = 3) is listed as 0.25 %IA/g and the tumor uptake ([1]; control n = 11) is listed as 1.0 %IA/g. For the same compound, the IC50 (αvβ8-integrin) was 38 nM.

For CC(C)C[C@@H]1NC(=O)CNC(=O)[C@H](CCCCNC(=O)CCc2cn(CCCNC(=O)CCP(=O)(O)CN3CCN(CP(=O)(O)CCC(=O)NCCCn4cc(CCC(=O)NCCCC[C@H]5C(=O)NCC(=O)N[C@@H](CC(C)C)C(=O)N[C@@H](CCCNC(=N)N)C(=O)NCC(=O)N[C@@H](CC(=O)O)C(=O)N[C@@H](CC(C)C)C(=O)N6CCC[C@@H]6C(=O)N5C)nn4)CCN(CP(=O)(O)CCC(=O)NCCCn4cc(CCC(=O)NCCCC[C@H]5C(=O)NCC(=O)N[C@@H](CC(C)C)C(=O)N[C@@H](CCCNC(=N)N)C(=O)NCC(=O)N[C@@H](CC(=O)O)C(=O)N[C@@H](CC(C)C)C(=O)N6CCC[C@@H]6C(=O)N5C)nn4)CC3)nn2)N(C)C(=O)[C@H]2CCCN2C(=O)[C@H](CC(C)C)NC(=O)[C@H](CC(=O)O)NC(=O)CNC(=O)[C@H](CCCNC(=N)N)NC1=O [^68Ga-Triveoctin, metal not drawn] (I: cyclo(RGDL[dP][NMeK]GL) / II: cyclo(RGDL[dP][NMeK]GL) / III: cyclo(RGDL[dP][NMeK]GL); linker I:6-II:6-III:6 via X1), the half-life (clinical) was 1.8 h, the kidney-to-blood ratio (clinical) was “approx. 15” and the kidney-to-muscle ratio (clinical) was about 30. For the same compound, the SUV at 1.5 h (clinical; iv, 173 MBq, total radioactivity) was 6.1 SUV, the tissue to tissue ratio at 1.5 h (clinical; iv, 173 MBq, total radioactivity, kidney-to-blood ratio) was 15 and the tissue to tissue ratio at 1.5 h (clinical; iv, 173 MBq, total radioactivity, kidney-to-blood ratio, times lower in human than in mice) was 8. The tissue to tissue ratio at 1.5 h (clinical; iv, 173 MBq, total radioactivity, kidney-to-muscle ratio) was 30, the tissue to tissue ratio at 1.5 h (clinical; iv, 173 MBq, total radioactivity, kidney-to-muscle ratio, times lower in human than in mice) was 16 and the “Dose estimate, Adrenals” value [2] was 2.69E−02 mGy/MBq. The “Dose estimate, Brain” value [2] was 5.23E−03 mGy/MBq, the “Dose estimate, Breasts” value [2] was 5.46E−03 mGy/MBq and the “Dose estimate, Gallbladder wall” value [2] was 1.00E−02 mGy/MBq. For the same compound, the “Dose estimate, Heart wall” value [2] was 1.52E−02 mGy/MBq, the “Dose estimate, Kidneys” value [2] was 2.60E−01 mGy/MBq and the “Dose estimate, LLI wall” value [2] was 2.08E−02 mGy/MBq. For the same compound, the “Dose estimate, Liver” value [2] was 2.43E−02 mGy/MBq, the “Dose estimate, Lungs” value [2] was 7.83E−03 mGy/MBq and the “Dose estimate, Muscle” value [2] was 7.23E−03 mGy/MBq. The “Dose estimate, Osteogenic cells” value [2] was 8.89E−03 mGy/MBq, the “Dose estimate, Ovaries” value [2] was 1.13E−02 mGy/MBq and the “Dose estimate, Pancreas” value [2] was 2.01E−02 mGy/MBq. For the same compound, the “Dose estimate, Red marrow” value [2] was 6.48E−03 mGy/MBq, the “Dose estimate, Skin” value [2] was 5.60E−03 mGy/MBq and the “Dose estimate, Small intestine” value [2] was 3.52E−02 mGy/MBq. The “Dose estimate, Spleen” value [2] was 4.42E−02 mGy/MBq, the “Dose estimate, Stomach wall” value [2] was 1.95E−02 mGy/MBq and the “Dose estimate, Testes” value [2] was 8.14E−03 mGy/MBq. For the same compound, the “Dose estimate, Thymus” value [2] was 6.17E−03 mGy/MBq, the “Dose estimate, Thyroid” value [2] was 5.72E−03 mGy/MBq and the “Dose estimate, Total body” value [2] was 9.41E−03 mGy/MBq. The “Dose estimate, ULI wall” value [2] was 1.57E−02 mGy/MBq, the “Dose estimate, Urinary bladder wall” value [2] was 3.42E−01 mGy/MBq and the “Dose estimate, Uterus” value [2] was 1.57E−02 mGy/MBq. The “effective dose (ICRP 60)” value [2] was 3.00E−02 mSv/MBq, the tissue uptake at 1 h (in vivo; Adrenals uptake) was 0.39 ± 0.23 %ID/g and the tissue uptake at 1 h (in vivo; Blood uptake) was 0.28 ± 0.06 %ID/g. For the same compound, the tissue uptake at 1 h (in vivo; Eye uptake) was 1.95 ± 0.44 %ID/g, the tissue uptake at 1 h (in vivo; Heart (myocard) uptake) was 0.16 ± 0.04 %ID/g and the tissue uptake at 1 h (in vivo; Kidneys uptake) was 35.3 ± 6.3 %ID/g. It also gave a tissue uptake at 1 h (in vivo; Large intestine (empty) uptake) of 0.17 ± 0.03 %ID/g, a tissue uptake at 1 h (in vivo; Liver uptake) of 0.28 ± 0.06 %ID/g and a tissue uptake at 1 h (in vivo; Lung uptake) of 0.68 ± 0.19 %ID/g. The tissue uptake at 1 h (in vivo; Muscle uptake) was 0.07 ± 0.01 %ID/g, the tissue uptake at 1 h (in vivo; Pancreas uptake) was 0.12 ± 0.02 %ID/g and the tissue uptake at 1 h (in vivo; Small intestine (empty) uptake) was 0.18 ± 0.09 %ID/g. It also gave a tissue uptake at 1 h (in vivo; Spleen uptake) of 0.23 ± 0.03 %ID/g, a tissue uptake at 1 h (in vivo; Stomach (empty) uptake) of 0.22 ± 0.07 %ID/g and a tissue uptake at 1 h (in vivo; Tumor MeWo uptake) of 1.86 ± 0.31 %ID/g. It also gave a tissue to tissue ratio at 1 h (in vivo; total radioactivity, kidney-to-blood ratio) of 126, a tissue to tissue ratio at 1 h (in vivo; total radioactivity, kidney-to-muscle ratio) of 505 and a tissue to tissue ratio at 1 h (in vivo; tumor/blood ratio) of 6.7 ± 0.7. It also gave a tissue to tissue ratio at 1 h (in vivo; tumor/heart (myocard) ratio) of 11.7 ± 1.7, a tissue to tissue ratio at 1 h (in vivo; tumor/kidneys ratio) of 0.1 and a tissue to tissue ratio at 1 h (in vivo; tumor/liver ratio) of 6.8 ± 1.4. The tissue to tissue ratio at 1 h (in vivo; tumor/lung ratio) was 2.8 ± 0.7, the tissue to tissue ratio at 1 h (in vivo; tumor/muscle ratio) was 29 ± 6 and the tissue to tissue ratio at 1 h (in vivo; tumor/pancreas ratio) was 15.7 ± 3.5. It also gave a tissue to tissue ratio at 1 h (in vivo; tumor/spleen ratio) of 7.9 ± 1.5, a tissue to tissue ratio at 1 h (in vivo; tumor/stomach (empty) ratio) of 8.8 ± 2.2 and a Kidneys uptake [3, 5] of 35 %IA/g. For the same compound, the “Tumor MeWo uptake” value [3, 5] was 1.9 %IA/g, the tumor/adrenals ratio [3] was 5.7 ± 2.3 and the tumor/blood ratio [3] was 6.7. For the same compound, the tumor/eye ratio [3] was 1.0 ± 0.2, the “tumor/large intestine (empty) ratio” value [3] was 11.0 ± 1.6 and the tumor/liver ratio [3] was 6.8. The tumor/muscle ratio [3] was 29, the “tumor/small intestine (empty) ratio” value [3] was 11.6 ± 3.9 and the IC50 (αvβ8-integrin; [4]) was 5.7 nM.
